Results on three molecules are retold here after patent publication US20080181899A1 (Regeneron, published 2008).

Numbering of substitutions follows the chain as printed.

The chains are these.
T1: M. mulatta DII4 monomer (M. mulatta, UniProt Q9NR61 27-524 (human entry))
T1 construct: also called mmDII4
T1 chain: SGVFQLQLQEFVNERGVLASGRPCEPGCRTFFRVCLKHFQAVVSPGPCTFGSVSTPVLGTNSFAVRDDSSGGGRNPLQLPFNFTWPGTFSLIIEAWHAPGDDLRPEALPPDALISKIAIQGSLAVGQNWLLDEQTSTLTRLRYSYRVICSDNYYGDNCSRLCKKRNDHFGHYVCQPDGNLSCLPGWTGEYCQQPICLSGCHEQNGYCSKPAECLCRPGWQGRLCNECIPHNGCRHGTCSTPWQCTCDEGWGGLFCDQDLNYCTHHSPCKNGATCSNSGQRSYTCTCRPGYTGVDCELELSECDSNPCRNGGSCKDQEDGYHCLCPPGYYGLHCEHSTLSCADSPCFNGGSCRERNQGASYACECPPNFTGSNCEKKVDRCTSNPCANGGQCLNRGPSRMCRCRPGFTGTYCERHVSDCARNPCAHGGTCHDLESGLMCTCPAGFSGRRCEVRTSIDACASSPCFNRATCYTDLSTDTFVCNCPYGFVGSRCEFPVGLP

T2: M. facscicularis DII4 monomer (M. facscicularis, UniProt Q9NR61 27-524 (human entry))
T2 construct: also called mfDII4
T2 chain: T1 chain with V495M

B1: 318518-01A10-D8 (antibody, human IgG1)
heavy: not shown
VL: EIVMTQSPATLSLSPGERATLSCRASQSVSSYLAWYQQKPGQAPRLLIYDASNRATGIPARFSGSGSGTDFTLTISSLEPEDFAVYYCQHRSNWPPTFGGGTKVEIK
notes: HCVR 429 with hIgG1 constant region 950; also called REGN281; 318518-1A10-D8
B2: REGN422 (antibody, human IgG4 S228P)
heavy: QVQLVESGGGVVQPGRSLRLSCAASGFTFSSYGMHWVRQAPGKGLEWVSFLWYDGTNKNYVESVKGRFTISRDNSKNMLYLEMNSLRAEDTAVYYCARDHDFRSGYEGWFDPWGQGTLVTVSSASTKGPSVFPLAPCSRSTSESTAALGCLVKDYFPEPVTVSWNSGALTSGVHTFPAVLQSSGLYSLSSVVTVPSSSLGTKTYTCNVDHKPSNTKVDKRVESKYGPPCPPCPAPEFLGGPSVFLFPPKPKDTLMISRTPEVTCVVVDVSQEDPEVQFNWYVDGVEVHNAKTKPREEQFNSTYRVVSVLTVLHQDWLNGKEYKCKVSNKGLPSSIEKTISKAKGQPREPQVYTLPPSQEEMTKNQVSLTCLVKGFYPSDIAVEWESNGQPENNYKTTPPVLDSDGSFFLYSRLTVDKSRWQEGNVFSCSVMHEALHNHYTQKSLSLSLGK
VL: B1 VL with M4L
notes: HCVR 901 with modified hIgG4 constant region 952
B3: REGN421 (antibody, human IgG1)
heavy: not shown
VL: B1 VL with M4L
notes: HCVR 901 with hIgG1 constant region 950

The first experiment has as its target T1, M. mulatta DII4 monomer. The experiment is described as follows: SPR BIACORE; antibody captured by anti-hFc; monomer analyte. On the procedure:
(§1) The binding affinities of selected purified antibodies to hDII4, M. facscicularis DII4 (mfDII4, SEQ IN NO:956), and M. mulatta DII4 (mmDII4, SEQ ID NO:957) monomers were determined using a BIACORE™ 2000 & 3000.
(SPR reads the build-up and loss of mass on a sensor chip optically.)
The Kd is the constant that tells how readily two partners part at equilibrium. Read a high Kd as weaker binding. The term koff denotes the rate constant with which the complex falls apart. A low value points to slow dissociation. A word on the kon: it is a measure of how fast the partners come together. Read a low kon as slow association. Consider B1, for which the dissociation constant Kd is 0.329 nM, the off-rate (koff) is 3.05e-05 s⁻¹ and the kon was 92700 M⁻¹ s⁻¹.
B2 had a Kd of 0.375 nM, a koff of 3.41e-05 s⁻¹ and an on-rate (kon) of 92700 M⁻¹ s⁻¹.
The molecule B3 showed a dissociation constant (Kd) of 0.333 nM, a koff of 3.23e-05 s⁻¹ and a kon of 97000 M⁻¹ s⁻¹.

The next experiment has as its target T3, monomeric hDII4 (human delta-like ligand 4) (human, UniProt Q9NR61 27-524).
T3 construct: also called monomeric DII4 protein
The experiment is described as above. On the procedure:
as §1
Regarding B1, the Kd amounted to 0.148 nM, the off-rate (koff) was 2.3e-05 s⁻¹ and the kon is 156000 M⁻¹ s⁻¹.
As to B2, binding was characterised by a dissociation constant (Kd) of 0.144 nM, the koff is 2.36e-05 s⁻¹ and the kon was determined as 164000 M⁻¹ s⁻¹.
Take B3: the Kd worked out at 0.133 nM, the koff is 2.17e-05 s⁻¹ and the on-rate (kon) is 163000 M⁻¹ s⁻¹.

The next experiment deals with T2, M. facscicularis DII4 monomer. Described as above. On the procedure: as §1
In turn, B1 had a Kd of 0.307 nM, a koff of 2.04e-05 s⁻¹ and a kon of 66400 M⁻¹ s⁻¹.
Turning to B2, the Kd is 0.36 nM, the koff stood at 2.88e-05 s⁻¹ and the on-rate (kon) was 80100 M⁻¹ s⁻¹.
B3 showed a Kd of 0.278 nM, a koff of 2.02e-05 s⁻¹ and a kon of 72800 M⁻¹ s⁻¹.

Another experiment addresses T4, dimeric hDII4-hFc (human, UniProt Q9NR61 27-524, biotin in Example 3 (biotin-DII4-hFc), site not stated).
T4 construct: also called DII4-Fc; biotin-DII4-hFc; not shown: human Fc
The experiment is described as follows: competition ELISA; antibody titrated against 30 pM biotin-DII4-hFc (1 hr); free biotin-DII4-hFc on Notch-hFc plate. On the procedure:
The ability of the antibodies to block DII4 binding to Notch was evaluated with an ELISA-based immunoassay. Briefly, Notch-hFc recombinant protein was coated on a 96-well plate in PBS buffer overnight at 4° C. at […], and the nonspecific binding sites were blocked with BSA.
What is called IC50 is the point on the concentration scale where inhibition reaches its midpoint. B1 displayed an IC50 of 0.042 nM. This counts as picomolar.
The molecule B2 yielded a concentration for half-maximal inhibition (IC50) of 0.039 nM.
B3 yielded a concentration for half-maximal inhibition (IC50) of 0.045 nM.

The target in a further experiment is T5, chimeric DII4 protein #6 (human DSL domain, V173-Q218, in mouse DII4) fused to mouse IgG2a-Fc (mouse; human, UniProt Q9JI71 28-173; Q9JI71 220-525).
T5 construct: not shown: mouse IgG2a-Fc fragment
The experiment is described as follows: SPR BIACORE; DII4 protein captured by anti-mouse IgG; antibody at 100 µg/ml. On the procedure: (§2) Briefly, each of the DII4 proteins was captured (240-470 RU) on goat anti-mouse IgG antibody surfaces, followed by injection of test antibody at a concentration of 100 μg/ml (Table 11).
B1: the binding result is “binds”.
B2: the binding result was “binds”.
As for B3, the binding result is “binds”.

The next experiment addresses T6, chimeric DII4 protein #1 (human N-terminal and DSL domains, S27-Q218, in mouse DII4) fused to mouse IgG2a-Fc (human; mouse, UniProt Q9JI71 220-525).
T6 construct: Used as CHO-K1 conditioned medium; not shown: mouse IgG2a-Fc fragment
Described as above. On the procedure:
as §2
As for B1, the binding result is “binds”.
The same measure, in the same setting: the value for B2 was “binds”.
Same read-out and setting: the value for B3 was “binds”.

The target of the next experiment is T7, chimeric DII4 protein #5 (human N-terminal domain, S27-R172, in mouse DII4) fused to mouse IgG2a-Fc (human; mouse, UniProt Q9JI71 174-525).
T7 construct: not shown: mouse IgG2a-Fc fragment
The experiment is described as above. On the procedure: as §2
On to B1, for which the binding result was “binds”.
Consider B2, for which the binding result is “binds”.
Turning to B3, the binding result is “binds”.

The next experiment deals with T8, chimeric DII4 protein #3 (human N-terminal, DSL, EGF-1 and EGF-2 domains, S27-Q283, in mouse DII4) fused to … (human; mouse, UniProt Q9JI71 285-525).
T8 construct: not shown: mouse IgG2a-Fc fragment
The description is as above. As to the method:
as §2
As for B1, the binding result was “binds”.
For the molecule B2, the binding result is listed as “binds”.
For B3, the binding result is listed as “binds”.

The target in a further experiment is T9, mDII4-mFc (mouse, UniProt Q9JI71 28-525).
T9 construct: also called mouse DII4-mFc; not shown: mouse Fc
The experiment is described as follows: SPR BIACORE; DII4 protein captured by anti-mouse IgG; antibody injected. As to the method: as §2
Turning to B1, the binding result is listed as “no binding (tested: 100 µg/ml)”.
Same read-out and setting: with B2 the entry was “no binding (tested: 100 µg/ml)”.
Regarding B3, the binding result is given as “no binding (tested: 100 µg/ml)”.
